The values below come from US20220025032A1 (Novartis, published 2022).

One assay concerns the target T1, Human BTC (human, UniProt P35070 32-111).
T1 construct: Soluble human BTC of the Biacore, ELISA, MSD and cell assays; also called human betacellulin; soluble human BTC
T1 sequence: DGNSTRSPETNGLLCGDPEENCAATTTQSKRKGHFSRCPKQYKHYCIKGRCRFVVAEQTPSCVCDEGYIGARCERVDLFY
As to the kind of experiment: SPR Biacore T200, anti-Fab capture, antigen as analyte.

In assay [1] the target is T2, Human VEGF165 (human, UniProt P15692 27-191).
T2 construct: mature; biotinylated in the VEGFR2 ELISAs; also called human VEGF-A; VEGF-A
T2 sequence (P15692 other isoform, or with tags, fused parts or gaps): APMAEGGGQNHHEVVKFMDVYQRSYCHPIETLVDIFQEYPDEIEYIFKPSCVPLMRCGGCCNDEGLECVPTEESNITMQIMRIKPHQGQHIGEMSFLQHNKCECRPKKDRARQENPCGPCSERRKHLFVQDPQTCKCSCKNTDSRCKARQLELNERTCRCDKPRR
The assay is described as above.

Assay [2] addresses T3, membrane-bound human BTC on 293F-hBTC cells (human, UniProt P35070 32-111).
T3 construct: the transfected construct is not described; also called membrane-anchored BTC
T3 sequence: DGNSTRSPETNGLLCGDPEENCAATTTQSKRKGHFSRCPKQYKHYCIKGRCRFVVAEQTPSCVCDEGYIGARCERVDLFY
As to the kind of experiment: flow cytometry on 293F cells with membrane-bound human BTC; y axis % Pos Binding. As for the experimental part: After washing the cells, the cells were dissociated using Versene at 37° C. The cells were washed with FACS buffer and plated at 100 μl in a 96 well plate using cells at 1×10⁶ cells/ml. Then 100 μl of a serial dilution of antibodies starting at 50 nM was used. The cells were incubated, washed and then treated with the secondary anti-human Fab-FITC antibody. The antibodies only bound to the cells expressing BTC. After which the cells were washed and analyzed on the Attune Flow Cytometry. All data analysis was carried out using Flow Jo software.
In FIG. 6A, Flow cytometry was used to assess the binding of NVS11 to membrane-bound BTC using an anti-human Fab antibody for detection.

Assay [3] deals with T4, Human BTC-avitag-biotin (human, UniProt P35070 32-111, biotin on the avitag).
T4 construct: also called biotin-BTC; soluble human BTC-avitag-biotin
T4 sequence: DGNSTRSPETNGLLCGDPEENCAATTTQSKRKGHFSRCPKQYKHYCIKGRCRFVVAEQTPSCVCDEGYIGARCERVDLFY
As to the kind of experiment: flow cytometry: inhibition of biotin-BTC binding to HKB11 cells over-expressing ErbB1; y axis Fluorescent Intensity. As for the experimental part: (§1) In order to assess potency of the Fabs and bispecific in neutralizing binding of BTC to its receptor Erb 1 or ErbB4, the following assay was performed. HKB11 over-expressing either ErbB1 or ErbB4 cells were plated 1×10⁵ cells/well. Cells were washed once with FACS buffer by spun down at 1200 rpm for 5 minutes and supernatant removed. Next, the Fab sample dilutions and BTC were prepared in FACS buffer. Human BTC-avitag-biotin was diluted to a fixed concentration of 15 nM. The test Fab samples were prepared at a starting concentration of 40 nM and titrated for 9 points at a serial dilution of 1:2. Both biotin-BTC and the test Fab samples are incubated for 30 minutes at room temperature. The pre-incubated samples were then added to the cell plate at 100 μl per well in duplicate and incubated for 1 hour on ice. The plate was then washed once in FACS buffer and spun down at 1200 rpm for 5 minutes and supernatant removed. After suspending the cell pellet with 100 μl/well of diluted secondary antibody streptavidin-Alexa Fluor488 (1:2000) in FACS buffer, the cells were then incubated for 60 min on ice. The cells were washed once with FACS buffer and re-suspended in 120 μl of FACS buffer for flow cytometric analysis.
(§2) Measurements were performed on Attune Flow Cytometry machine. Data were analysed using the Flow Jo software. The live cell populations analysed were gated in forward and side scattering (FSC-A/SSC-A dot plot). The interval gate was established on the control histogram, which was obtained with sample incubated in streptavidin-Alexa Fluor488 only, and subsequently, determined percent of positive binding events of cells carrying membrane-bound receptor ErbB1 or ErbB4 and biotin-BTC. The median of fluorescence intensity (MFI) value was also derived for the live cell population. MFI values were then used to calculate for percent inhibition of test sample and subsequently plotted in GraphPad Prism 7.03 using nonlinear regression (curve fit) model to generate IC50 value.

Assay [4] has as its target T4, Human BTC-avitag-biotin. As to the kind of experiment: flow cytometry: inhibition of biotin-BTC binding to HKB11 cells over-expressing ErbB4; y axis Fluorescent Intensity. As to the method: as §1, §2
Assay [5] deals with T2, Human VEGF165. As to the kind of experiment: competition ELISA: antibody pre-incubated with 400 pM VEGF-biotin, added to coated VEGFR2, streptavidin-HRP detection; y axis OD. As to the method: (§3) The plates were then washed 3 times using 1λTBST. The plates were blocked in 2% BSA diluent (0.1% Tween 20/0.1% TirtonX100) overnight. After blocking, the plates were washed 3 times using TB ST and then the sample mixture was added at 20 μl/well. The sample mixture consisted a final fixed concentration of VEGF-biotin (in-house) at 400 pM and a 15 point 1:2 serial dilution of the antibody starting at 20 nM. The sample mixture was pre-incubated for 1 hour prior to adding to the plate and then incubated for another hour at room temperature on the plate. Afterwards, the plate was washed 3 times using TBST and 20 μl/well of Streptavidin-HRP diluted at 1:5000 was added for an incubation time of 1 hour. The plates were washed 3 times in TBST and then 20 μl/well of TMB substrate was added. TMB is a chromogen that yields a blue color when oxidized. TMB was incubated for 10 minutes until the signal saturated in the no antibody samples, and then 10 μl/well of 2N sulfuric acid was added which then changes the blue color to yellow and this now has a maximum absorbance at 450 nm.

Assay [6] concerns the target T2, Human VEGF165. The description is as above. As to the method: as §3
The source holds these as a separate data set.

Like-named read-outs stand apart in the source and are kept apart here.

B1: NVS13 (bispecific antibody)
heavy: QVQLLESGGGLVQPGGSLRLSCAASGFTFSSYAMSWVRQAPGKGLEWVSGLGHVGYTTYTDSVKGRFTISRDNSKNTLYLQMNSLRAEDTAVYYCARDYLDFGYYFDVWGQGTLVTVSSASTKGPSVFPLAPSSKSTSGGTAALGCLVKDYFPEPVTVSWNSGALTSGVHTFPAVLQSSGLYSLSSVVTVPSSSLGTQTYICNVNHKPSNTKVDKRVEPKSCGSGGGGSGGGGSGGGEVQLVESGGGLVQPGGSLRLSCTASGFSLTDYYYMTWVRQAPGKGLEWVGFIDPDDDPYYATWAKGRFTISRDNSKNTLYLQMNSLRAEDTAVYYCAGGDHNSGWGLDIWGQGTLVTVSSASTKGPSVFPLAPSSKSTSGGTAALGCLVKDYFPEPVTVSWNSGALTSGVHTFPAVLQSSGLYSLSSVVTVPSSSLGTQTYICNVNHKPSNTKVDKRVEPKSC
light: SYELTQPLSVSVALGQTARITCSGDKIGKKYVHWYQQKPGQAPVLVIYDDSDRPSGIPERFSGSNSGNTATLTISRAQAGDEADYYCQAWDMQSVVFGGGTKLTVLGQPKAAPSVTLFPPSSEELQANKATLVCLISDFYPGAVTVAWKADSSPVKAGVETTTPSKQSNNKYAASSYLSLTPEQWKSHRSYSCQVTHEGSTVEKTVAPTECSGSGGGGSGGGGSGGGEIVMTQSPSTLSASVGDRVIITCQASEIIHSWLAWYQQKPGKAPKLLIYLASTLASGVPSRFSGSGSGAEFTLTISSLQPDDFATYYCQNVYLASTNGANFGQGTKLTVLKRTVAAPSVFIFPPSDEQLKSGTASVVCLLNNFYPREAKVQWKVDNALQSGNSQESVTEQDSKDSTYSLSSTLTLSKADYEKHKVYACEVTHQGLSSPVTKSFNRGEC
notes: Fab-Fab: NVS3 Fab, (GSGGG)3 linker, NVS8 Fab; also called anti-BTC/anti-VEGF bispecific Fab; bispecific Fab-Fab
Regarding B1, the values for the Kd in the assay with Human BTC and in the assay with Human VEGF165 [1] were 0.0018 nM and 0.0065 nM, respectively. In addition, in assay [2], it took 0.194 nM to reach a half-maximal effect (EC50). The IC50 in the assay with Human BTC-avitag-biotin [3] turned out to be 1.82 nM; with Human BTC-avitag-biotin [4] it was 2.12 nM.

B2: NVS14 (bispecific antibody)
heavy: QVQLLESGGGLVQPGGSLRLSCAASGFTFSRYWISWVRQAPGKGLEWVSYIDSTGTFINYADSVKGRFTISRDNSKNTLYLQMNSLRAEDTAVYYCARGGSLFDYWGQGTLVTVSSASTKGPSVFPLAPSSKSTSGGTAALGCLVKDYFPEPVTVSWNSGALTSGVHTFPAVLQSSGLYSLSSVVTVPSSSLGTQTYICNVNHKPSNTKVDKRVEPKSCGSGGGGSGGGGSGGGEVQLVESGGGLVQPGGSLRLSCTASGFSLTDYYYMTWVRQAPGKGLEWVGFIDPDDDPYYATWAKGRFTISRDNSKNTLYLQMNSLRAEDTAVYYCAGGDHNSGWGLDIWGQGTLVTVSSASTKGPSVFPLAPSSKSTSGGTAALGCLVKDYFPEPVTVSWNSGALTSGVHTFPAVLQSSGLYSLSSVVTVPSSSLGTQTYICNVNHKPSNTKVDKRVEPKSC
light: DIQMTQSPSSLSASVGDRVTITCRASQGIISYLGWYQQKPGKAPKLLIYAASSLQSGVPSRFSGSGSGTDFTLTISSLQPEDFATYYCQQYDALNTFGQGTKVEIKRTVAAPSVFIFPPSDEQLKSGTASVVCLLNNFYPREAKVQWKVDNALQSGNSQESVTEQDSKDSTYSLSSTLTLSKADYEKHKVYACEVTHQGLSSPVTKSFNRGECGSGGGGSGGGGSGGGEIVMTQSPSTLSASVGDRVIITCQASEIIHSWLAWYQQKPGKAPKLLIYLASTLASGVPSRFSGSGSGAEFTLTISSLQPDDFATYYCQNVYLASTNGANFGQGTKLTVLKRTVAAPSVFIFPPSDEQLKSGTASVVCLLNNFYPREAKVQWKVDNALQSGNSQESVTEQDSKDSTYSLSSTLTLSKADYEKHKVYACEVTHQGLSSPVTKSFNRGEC
notes: Fab-Fab: NVS4 Fab, (GSGGG)3 linker, NVS8 Fab; also called anti-BTC/anti-VEGF bispecific Fab; bispecific Fab-Fab
Turning to B2, the Kd with Human BTC was 0.002 nM; with Human VEGF165 [1], 0.016 nM. Further, the half-inhibitory concentration (IC50) in the assay with Human BTC-avitag-biotin [3] was found to be 2.17 nM; with Human BTC-avitag-biotin [4] it was 2.32 nM; with Human VEGF165 [5], 1.33 nM.

B3: NVS12 (bispecific antibody)
heavy: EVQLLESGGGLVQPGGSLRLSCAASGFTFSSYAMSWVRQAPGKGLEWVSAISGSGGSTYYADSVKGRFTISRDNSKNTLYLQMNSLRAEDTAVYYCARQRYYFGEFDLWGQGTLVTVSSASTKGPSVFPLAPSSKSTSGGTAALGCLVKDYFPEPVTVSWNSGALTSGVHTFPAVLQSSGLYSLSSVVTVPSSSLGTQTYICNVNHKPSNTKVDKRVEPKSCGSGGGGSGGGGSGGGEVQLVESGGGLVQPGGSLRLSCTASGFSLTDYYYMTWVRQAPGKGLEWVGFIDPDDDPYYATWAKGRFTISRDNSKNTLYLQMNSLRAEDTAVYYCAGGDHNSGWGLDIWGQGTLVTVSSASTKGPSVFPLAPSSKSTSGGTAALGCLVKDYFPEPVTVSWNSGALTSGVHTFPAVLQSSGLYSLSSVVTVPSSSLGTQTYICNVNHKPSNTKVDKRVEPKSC
light: SYELTQPPSVSVSPGQTASITCSGDKLGDKYAYWYQQKPGQSPVLVIYQDSKRPSGIPERFSGSNSGNTATLTISGTQAEDEADYYCQAFDYLYSLGVFGGGTKLTVLGQPKAAPSVTLFPPSSEELQANKATLVCLISDFYPGAVTVAWKADSSPVKAGVETTTPSKQSNNKYAASSYLSLTPEQWKSHRSYSCQVTHEGSTVEKTVAPTECSGSGGGGSGGGGSGGGEIVMTQSPSTLSASVGDRVIITCQASEIIHSWLAWYQQKPGKAPKLLIYLASTLASGVPSRFSGSGSGAEFTLTISSLQPDDFATYYCQNVYLASTNGANFGQGTKLTVLKRTVAAPSVFIFPPSDEQLKSGTASVVCLLNNFYPREAKVQWKVDNALQSGNSQESVTEQDSKDSTYSLSSTLTLSKADYEKHKVYACEVTHQGLSSPVTKSFNRGEC
notes: Fab-Fab: NVS2 Fab, (GSGGG)3 linker, NVS8 Fab; also called anti-BTC/anti-VEGF bispecific Fab; bispecific Fab-Fab
Take B3: the Kd in the assay with Human BTC amounted to 0.006 nM; with Human VEGF165 [1], 0.017 nM. Moreover, the EC50 in assay [2] was 0.137 nM. Further, the figures for the IC50 with Human BTC-avitag-biotin [3], with Human BTC-avitag-biotin [4] and in the assay with Human VEGF165 [6] were 1.6 nM, 2.19 nM and 1.2 nM, respectively.
